From patent US20080242590A1, “New Method 706” (ASTRAZENECA AB, priority 2007, published 2008)

Assays:
[1] = tested on: fluorogenic peptide substrate V—Mca-Arg-Pro-Gly-Phe-Ser-Ala-Phe-Lys(Dnp)-OH; test: Neprilysin enzyme activity FRET assay, cell media; format: biochemical
Procedure: The Neprilysin enzymatic activity was determined in a fluorescence resonance energy transfer (FRET) assay. Recombinant Human Neprilysin (R&D Systems), culture medium from Neprilysin or Fc-Neprilysin producing cells (AZ Sodertalje) or purified Neprilysin or Fc-Neprilysin was added into 96-well plate containing 10 μM of fluorogenic peptide substrate V—Mca-Arg-Pro-Gly-Phe-Ser-Ala-Phe-Lys(Dnp)-OH (R&D Systems). The final concentration of the control recombinant human Neprilysin was 0.1 or 0.25 μg/ml. 10 μM of Neprilysin inhibitor phosphoramidone (BIOMOL) was added into some wells in order to control the specificity of the signal in the assay and verify the specific Neprilysin activity. Following addition of all components to wells, plate was immediately placed into a fluorescent plate reader (Ascent) and signal was recorded for every minute for 20 minutes at the excitation 340 nm and emission 405 nm. The activity of enzyme was evaluated by calculating the velocity of reaction−Slope coefficient=ΣΔRFU/Δt. In order to compare the specific activity of the commercial recombinant Neprilysin and Fc-Neprilysin fusion protein, we introduced the specific activity coefficient, which is calculated according to this formula: Specific activity=slope coefficient/pmol of Neprilysin or monomer of Fc-Neprilysin in assay. […]

[2] = Plasma exposure (Example 24); format: in vivo, C57BL/6 mice
Procedure: 13 weeks old female C57BL/6 mice (10 mice/group) received vehicle or hFc-Nep at 1 or 5 mg/kg as a single intravenous injection. M-550426 was administrated per orally at 300 μmol/kg 3 hours before termination. A blank group was also included in the study.
Blood was sampled from vehicle- and compound-treated animals at 1.5 and 3 hours after dose. Blood was withdrawn from anaesthetized mice by heart puncture into pre-chilled microtainer tubes containing EDTA. Blood samples were immediately put on ice prior to centrifugation. Plasma was prepared by centrifugation for 10 minutes at approximately 3000×g at +4° C. within 20 minutes from sampling. After blood sampling, mice were terminated. […] Mouse Aβ40 levels in plasma were analysed by commercial ELISA kit obtained from Biosource. The concentrations of Fc-Nep in plasma and in the formulations were assayed according to the procedures described in Example 27.

[3] = Pharmacokinetics of Fc-Nep and in-house produced Neprilysin, single i.v. dose (Example 27); format: in vivo; details: mice, single i.v. dose 10 or 50 nmol enzyme/kg (1 and 5 mg/kg)
Procedure: The Fc-Nep fusion protein was developed to improve the pharmacokinetic entities of neprilysin with the specific aims to reduce clearance and improve half-life. To test this we have administrated a single i.v. dose of 10 or 50 nmol enzyme/kg body weight neprilysin (Nep) or Fc-Nep (1 and 5 mg/kg) to mice. At set times the dose blood samples were drawn from the tail vein or by heart puncture at termination. Upon sampling into tubes containing EDTA the aliquots were put on ice. Plasma was prepared by centrifugation within 15 minutes of sampling (typically 1500 g at 4° C. for 10 min) and immediately frozen. Plasma concentrations of Nep and Fc-Nep were determined via immunoassays using either anti-Nep for Nep or anti-human IgG for Fc-Nep as capture antibodies while both substances were detected via an anti-Nep antibody. Pharmacokinetic parameters are calculated using a software package (WinNonlin, Pharsight Corporation, USA) and in this example experiment the calculated half-life had increased from about 1 day for Nep to about 2.5 weeks for Fc-Nep.

[4] = tested on: amyloid β 1-40; test: Degradation of Aβ 1-40 in human plasma pool (Example 28); format: biochemical; details: room temperature, 1 hour
Procedure: (§1) Blood from twelve individuals (6 females and 6 males) were collected into pre-chilled heparin-plasma tubes at the healthcare centre (AstraZeneca) at three different time points. Plasma was prepared by centrifugation at 2500×g for 20 min at 4° C. Plasma samples were collected and transferred to pre-chilled polypropylene tubes and immediately frozen and stored at −70° C. prior to use. Plasma was thawed and pooled from 12 individuals just before the experiment. Aβ 1-40 and 1-42 in plasma pool was degraded by human Fc-Nep or mouse Fc-Nep with corresponding vehicles (50 mM Tris-HCl, 150 mM NaCl pH 7.5). The following final concentrations of the Fc-Nep constructs were used, 100, 32, 10, 3.2, 1, 0.3, 0.1 and […] and the degradation occurred at room temperature for 1 hour while shaking on an orbital shaker. The enzymatic reaction was stopped by adding Phosphoramidone (10 μM final concentration). Concentration of amyloid β 1-40 in human plasma pool was measured using ELISA kit (Biosource; KHB3481) according to the manufacturers instructions.

[5] = tested on: Aβ 1-42; test: Degradation of Aβ 1-42 in human plasma pool (Example 28); format: biochemical; details: room temperature, 1 hour
Procedure: as §1
A final concentration of 4.7 mM EDTA was added to the tubes before the concentration of Aβ42 was analyzed using ELISA kit Innotest® β-Amyloid1-42 (Innogenetics, lot#177462, ref#80177) according to the manufacturers instructions.

[6] = highest concentration 100 μg/ml

B1: Fc-Neprilysin: extracellular domain of human Neprilysin fused to the human IgG2 Fc domain (including hinge), Fc at N-terminus; SEQ ID NO 11 (protein)
chain: ERKCCVECPPCPAPPVAGPSVFLFPPKPKDTLMISRTPEVTCVVVDVSHEDPEVQFNWYVDGVEVHNAKTKPREEQFNSTFRVVSVLTVVHQDWLNGKEYKCKVSNKGLPAPIEKTISKTKGQPREPQVYTLPPSREEMTKNQVSLTCLVKGFYPSDIAVEWESNGQPENNYKTTPPMLDSDGSFFLYSKLTVDKSRWQQGNVFSCSVMHEALHNHYTQKSLSLSPGKYDDGICKSSDCIKSAARLIQNMDATTEPCTDFFKYACGGWLKRNVIPETSSRYGNFDILRDELEVVLKDVLQEPKTEDIVAVQKAKALYRSCINESAIDSRGGEPLLKLLPDIYGWPVATENWEQKYGASWTAEKAIAQLNSKYGKKVLINLFVGTDDKNSVNHVIHIDQPRLGLPSRDYYECTGIYKEACTAYVDFMISVARLIRQEERLPIDENQLALEMNKVMELEKEIANATAKPEDRNDPMLLYNKMTLAQIQNNFSLEINGKPFSWLNFTNEIMSTVNISITNEEDVVVYAPEYLTKLKPILTKYSARDLQNLMSWRFIMDLVSSLSRTYKESRNAFRKALYGTTSETATWRRCANYVNGNMENAVGRLYVEAAFAGESKHVVEDLIAQIREVFIQTLDDLTWMDAETKKRAEEKALAIKERIGYPDDIVSNDNKLNNEYLELNYKEDEYFENIIQNLKFSQSKQLKKLREKVDKDEWISGAAVVNAFYSSGRNQIVFPAGILQPPFFSAQQSNSLNYGGIGMVIGHEITHGFDDNGRNFNKDGDLVDWWTQQSASNFKEQSQCMVYQYGNFSWDLAGGQHLNGINTLGENIADNGGLGQAYRAYQNYIKKNGEEKLLPGLDLNHKQLFFLNFAQVWCGTYRPEYAVNSIKTDVHSPGNFRIIGTLQNSAEFSEAFHCRKNSYMNPEKKCRVW
[1]; expression with pCEP4 vector
  Specific activity (slope coefficient/pmol): 13.4
[1]; expression with pEAK10 vector
  Specific activity (slope coefficient/pmol): 15.2
[2]; 1 mg/kg i.v., 1.5 hours
  Mean plasma exposure: 14 µg/mL
[2]; 1 mg/kg i.v., 3 hours
  Mean plasma exposure: 17 µg/mL
[2]; 5 mg/kg i.v., 1.5 hours
  Mean plasma exposure: 89 µg/mL
[2]; 5 mg/kg i.v., 3 hours
  Mean plasma exposure: 78 µg/mL
[3]
  calculated half-life: about 2.5 weeks
[4]; [6]
  Degradation of amyloid β 1-40 compared to plasma without treatment: 66%
[4]
  EC50: 580 nM
[5]; [6]
  Degradation of Aβ 1-42 compared to plasma without treatment: 28%
[5]
  EC50: 250 nM
